Laboratory results as given in the nanobody polyreactivity screen of Harvey et al. (2022).

Test: yeast display, Sf9 membrane polyspecificity reagent, FACS + sequencing; frameworks hold sequencing errors
Method in brief: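 Galactose induction of a Saccharomyces cerevisiae BJ5465 synthetic nanobody display library ran 36–48 hours. The cells were then stained for 1 hour at 4 °C with 10% biotinylated, detergent-solubilized Sf9 membrane reagent, pulled down on streptavidin microbeads and FACS-sorted into low and high (top ~1%) gates on expression and reagent-binding fluorescence. Labels for polyreactivity follow the gate of origin.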

| Sequence | polyreactivity (PSR sort gate) |
| --- | --- |
| QVQLVESGGGLVQAGGSLRLSCASSGRIFGYYVRGWYRQAPGTERELVATISRVGTTNYADSVKGRFTISRDNAKNSVYLPMNSLKPEDTAVYYCNADYTGHRGGNDYWGQGTQVTVSS | low polyreactivity |
| QVQLVESGGGLVQAGGSLRLSCASSGRIFPWNTMGWYRQAPGKERELVAGINNGDRTYYADSVKGRFTISRDNAKNRVYLQMNSLKPDETAVYYCARDDNPIYSGVTYDSWGQGTQVSVSS | low polyreactivity |
| QVQLVESGGGLVQAGGSLRLSCASSGRIFSFYAMGWYRQAPGKERELVAAISWNSGRTYYADSVKGRFTISRDNAKNTVYLQMNSLKPEDTAVYYCAAPFSAYYGDDYWGQGTQVTVSS | low polyreactivity |
| QVQLVESGGGLVQAGGSLRLSCASSGRIFYYYAMGWYRQAPGKEREFVARNRSSGGSTYADSVKGRFTISRDNAKNTVYLQMNSLKPEDTAVYYCARDGYTAVEYDYWGQGTQVTVSS | low polyreactivity |
| QVQLVESGGGLVQAGGSLRLSCASSGRNFQKYAMGWYRQAPGKERELVAAISSGDSTYADSVKGRFTISRDNAKNTVYFQMNSLKPEDTAVYYCAVDLYDPWWYSYIGEYEYWGQGTQVTVSS | low polyreactivity |
| QVQLVESGGGLVQAGGSLRLSCASSGRTFFKNALGWYRQSPGKERELVARISWNGGDSTYYADSVKGRFTISRDNAKITVFFQMISLKPEDTAVYYCAADTSYRQGGSRHGYVYWGQGTQVTVSS | low polyreactivity |
| QVQLVESGGGLVQAGGSLRLSCASSGRTFFPYAKGWYRQAPGKEREFVAAITKTDDSTYYADSVKGRFTISRDNAKNTVYLQMNSLKPEDTAVYYCNAGDTQIRFYYWGQGTQVTVSS | low polyreactivity |
| QVQLVESGGGLVQAGGSLRLSCASSGRTFGTYAMGSYRQAPGKDSELVAAITSGTRTYYADCVKGRFTISRDNAKNTVYLQMNSQKPEDTSVYYCAAGLVYRWSSTPRRLYYYWGQGTQVTVSS | high polyreactivity |
| QVQLVESGGGLVQAGGSLRLSCASSGRTFLRYAMGWYRQAPGKERELVAAISSRGGTTHYADSVKGRFTISRDNAKNTVYLPMNSLKPEDTAVYYCAAKSFLPYLKFGYWGQGTQVTVSS | high polyreactivity |
| QVQLVESGGGLVQAGGSLRLSCASSGRTFVNNAMGWSRQAPGKERELVAAISQSGSRTYYADSVKGRFTISRDNAKNTVYLQMNSLKPEDTAVYYCAARGARYSTSDYWGQGTQVTVSS | high polyreactivity |
| QVQLVESGGGLVQAGGSLRLSCASSGRTFYSYAMGWYRQAPGKERELVAGITWSGTSTYYADSVKGRFTISRDNWKNTVYLQMYSLKPEDTAVYYCAAATLYSGYDYWGQGTQVSVSS | low polyreactivity |
| QVQLVESGGGLVQAGGSLRLSCASSGRTFYSYVMGWYRQAHGKERELVAGISKRGGRTYYADSVKGRFTISRDNAKNTVYLEMYSLKPEDTAVYFCADDFPHTYWTFDFDYWGQGTQVTVSS | high polyreactivity |
| QVQLVESGGGLVQAGGSLRLSCASSGRTIYGSTKGWYRQAPGKESELGAAIRRSGGSTYYADSVKGRFTISRDNAKNTVYFQMNRLNPEDTAVYYCAASWRDIYRHYNVYPYDYWGQGTQVTVSS | low polyreactivity |
| QVQLVESGGGLVQAGGSLRLSCASSGSIFARYALGWYIQAPGKQRELVADINSTVSTNYADSVKGRFTISRDNAKNPVYLQMNSLKPEVTAVSYCAVDIVRGGRDSWGQGTQVTVSS | low polyreactivity |
| QVQLVESGGGLVQAGGSLRLSCASSGSIFEANDMGWYRQAPGKEREFVADIDANSGSTYYADSVKGRFTISRDNAKNTVNLQMNSLKPEDTADYYCNAQVYLHTAYDYWGQVTQVTVSS | low polyreactivity |
| QVQLVESGGGLVQAGGSLRLSCASSGSILGRYAMGWYRQAPGKERELVAAISGSGGSTYYADSVKGRFTISRDNAKNTVYLQMNSLKPEDTAVYYCAAERFIYYQIFEYWGQGTQVTVSS | high polyreactivity |

| Sequence | polyreactivity (PSR sort gate) |
| --- | --- |
| QVQLVESGGGLVQAGGSLRLSCASSGSTFDANAMGWYRQAPGKERELVAAITSNGGSTYYADSVKGRFTISRDNAKNTVYLQMNSLKPEDTAVYYCATEQHTVQDYDYWGQGTQVTVSS | low polyreactivity |
| QVQLVESGGGLVQAGGSLRLSCASSGSTFEANAMGWYRQAPGKERELVAVITWTGGSTYYADSVKGRFTISRDNAKNTLYLQMNSLKPEDTAVYYCDADGVVPGRFFWPAHEYEYWGQGTQGTVSS | low polyreactivity |
| QVQLVESGGGLVQAGGSLRLSCASSGSTFNRYAMVWYRQAPGKERELVAAISGSGSSTYYADSVKGRFTISRDNAKNTVYLQMNSLKPEDNAVYYCAAVRYHKFREYNSWGQGTQVTVSS | high polyreactivity |
| QVQLVESGGGLVQAGGSLRLSCASSGSTFNSYAMGWYRQAPGKERELVAAISWSGGSTYYADSVKGRFTISRDNAKNTVYLQMNSLKPEDTAVYYCNADYWWEYAYVVDYWGQGTQVTVSS | low polyreactivity |
| QVQLVESGGGLVQAGGSLRLSCASSGSTFSYYDMGWYRQAPGKERELVAAISWNGGTTYYADSVKGRFTISRDNAKNTVYLQMNSLKPEDTAVYYCAATWDFYWAPYDSWGQGTQVSVSS | low polyreactivity |
| QVQLVESGGGLVQAGGSLRLSCASSGSTFTPNAMGWYRQAPGKERELVASNYTTGGNTYYADSVKGRFTNSRDNAKNTVYLQMNSLKPEDTAVYYCNARQALVWKWSWYSPGYDYWGQGTQVTVSS | low polyreactivity |
| QVQLVESGGGLVQAGGSLRLSCASSGYILRSNAMVWYRQAPGKEREFVAAITYSGGTTYYADSVKGRFTISRDNAKNTVYLQMNSLKPEDTAVYYCNADYGYYKLDYWGQGTQVTVSS | low polyreactivity |
| QVQLVESGGGLVQAGGSLRLSCASSGYIYIVNAMGWYRQAPGKERELDAAINSSGGNTYYADSVKGRFTISRDNAKNTVYLQMNSLKPEDTGVYYCAADQAKDISFEYDYWGQGTQVTVSS | low polyreactivity |
| QVQLVESGGGLVQAGGSLRLSCASSGYTFVYYAMGWYRQAPGKERELVAAINVSDGNTFYADSVKGRFTISRDNAKNTVYLQMNSLIPEDTAVYYCAADYYPYPPTSEYGYWGQGTQVTVSS | low polyreactivity |
| QVQLVESGGGLVQAGGSLRLSCASSVRIFEVYAMGSYRQAPGKERELVADITYSGGSTYYADSVKGRFTISRDNAMNTVYLQMNSLKPEDTAVYYCAADVTFVHRYEYYRSYDYWGQGTQVTVSS | low polyreactivity |
| QVQLVESGGGLVQAGGSLRLSCATSGFTLLKNAMGWYRQAPGKERELVAAIRQRGTTTYYADSVKGRFTISRDNAKNTVYLQMNSLKPEDTAVYSCNAGRRTGRYGYWGQGTQVTVSS | high polyreactivity |
| QVQLVESGGGLVQAGGSLRLSCAVSGGLFSFYAMGWYRQAPGKERELVAAISSGGTTYYADSVKGRFTISRDNAKNTVYLQMNSLKPEDTAVYYCALLVGHNYWGQGTQVTVSS | low polyreactivity |
| QVQLVESGGGLVQAGGSLRLSCCASGFTVSSYARAWYRQAPGKERELVAAITYRGGSTYYADSVKGRFTISRDNAKNTVFLLMNSLKPEDTAVYYCAARWGYRMYWGQGTQVTVSS | high polyreactivity |
| QVQLVESGGGLVQAGGSLRLSCDASGFIFGYYAMGWYRHAPGKERELVAAISRGDTSTYYADSVKGRFTISRDNAKNTVYLQMYSLKPEDTAVYYCAADWTGYGYYYWGQGTQVTVSS | low polyreactivity |
| QVQLVESGGGLVQAGGSLRLSCDASGFIFPYYAMGWYRQAPGKERELVARITRGGRTYYADSVKGRFTISRDNAKNTVYLQMNSLKPEDTAVYYCATTGSSYFHSFEYDYWGQGTQVTVSS | low polyreactivity |
| QVQLVESGGGLVQAGGSLRLSCDASGFIFTGNVMGWYRQAPGKERELVAGITYTSGSTYYADSVKGRFTISRDYAKNTVYLQMNSLKPEDTAVYYCAAEITRHYVFGDDYWGQGTQVTVSS | low polyreactivity |
